Blank lines part the entries; values can stand above or below the binder they belong to.
Columns and labels:
[1] = molecular target: T1, recombinant biotinylated human PAR2 extracellular domain (residues 1-75), N-terminal AviTag, C-terminal Flag … (human, UniProt P55085 26-75, biotin on the AviTag (enzymatic biotinylation)); assay: HTRF competition with Dylight650-Par0067 IgG, IgG
T1 construct: also called Bio-human-PAR2 ECD; human PAR2 ECD; not shown: N-terminal AviTag (Avidity LLC); C-terminal Flag and poly Histidine tags
T1 sequence (P55085 26-75): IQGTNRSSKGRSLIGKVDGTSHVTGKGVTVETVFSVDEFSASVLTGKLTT
Description: (§1) Parent Par0067 IgG (used as a reference/control in all assays) was pre-diluted to give a 2000 nM stock in each of the two different pH assay buffers (in order to give a top final assay IgG concentration of 500 nM). All test, or other reference/control IgG were tested from a top final assay concentration of ¼ of the neat undiluted sample (i.e. no pre-dilution step was performed). Duplicate 11 point 1:3 serial dilutions then were prepared on 384 well polypropylene Greiner plates in each of the two assay buffers (pH 7.4 & 6.0). 5 μl per well was transferred from the relevant pH IgG dilution plate to the corresponding assay plate (pH 7.4 and pH 6.0). 5 ul of the appropriate pH assay buffer was added to the total and non-specific wells.
(§2) For multipoint dose response curves % Specific Binding values were plotted versus test purified antibody concentration (scFv or IgG). IC₅₀ values were determined via a sigmoidal dose response inhibition variable slope curve fit (4 parameter logistic equation) using Graphpad Prism Software.

[2] = molecular target: T1, recombinant biotinylated human PAR2 …; assay: HTRF competition with Dylight650-Par0067 IgG, pH 7.4, IgG
Description: as §1, §2

[3] = molecular target: T1, recombinant biotinylated human PAR2 …; assay: HTRF competition with Dylight650-Par0067 IgG, pH 6.0, IgG
Description: as §1, §2

[4] = molecular target: T1, recombinant biotinylated human PAR2 …; assay: Biacore SPR 25 C, pH 7.4
Description: (§3) The experiments were carried out using recombinant human, rat and cynomolgus PAR2 with an N-terminal Avi tag and C-terminal Flag-His tags.
(§4) Streptavidin was covalently immobilised to a C1 chip surface using standard amine coupling techniques at a concentration of 4 μg/ml in 10 mM Sodium acetate pH 4.5. A final streptavidin surface of approximately 30-100 RUs was achieved. Recombinant biotinylated PAR2 species (produced in-house) were titrated onto the streptavidin chip surface at 4 μg/ml in HBS-EP+ buffer to enable Fab binding at saturation (Rₘₐₓ). This low level of analyte binding ensured minimal mass transport effects.
(§5) The anti-PAR2 Fabs were serially diluted (0.39 nM-25 nM) in HBS-EP+ buffer pH 7.4 or MES-BS-EP+ pH 6.0 buffer or in MES-BS-EP+ pH 5.6 buffer and flowed over the chip at 50 μl/min, with 3 minutes association and up to 30 minutes dissociation. Multiple buffer-only injections were made under the same conditions to allow for double reference subtraction of the final sensorgram sets, which were analysed using the BiaEval software (version 2.0.1). The chip surface was fully regenerated with pulses of 4 M MgCl₂.

[5] = molecular target: T2, recombinant biotinylated rat PAR2 extracellular residues 1-75, N-terminal AviTag, C-terminal Flag and poly … (rat, UniProt Q63645 26-75, not fully specified; biotin on the AviTag (enzymatic biotinylation)); assay: Biacore SPR 25 C, pH 7.4
T2 construct: range 1-75; not shown: N-terminal AviTag (Avidity LLC); C-terminal Flag and poly Histidine tags
T2 chain (looked up): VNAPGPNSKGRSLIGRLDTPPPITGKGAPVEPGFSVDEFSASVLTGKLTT
Description: as §3, §4, §5

[6] = molecular target: T1, recombinant biotinylated human PAR2 …; assay: Biacore SPR 25 C, pH 6.0
Description: as §3, §4, §5

[7] = molecular target: T2, recombinant biotinylated rat PAR2 …; assay: Biacore SPR 25 C, pH 6.0
Description: as §3, §4, §5

[8] = molecular target: T1, recombinant biotinylated human PAR2 …; assay: Biacore SPR 25 C, pH 7.4; remark: listed apart in the source
Description: as §3, §4, §5

[9] = molecular target: T2, recombinant biotinylated rat PAR2 …; assay: Biacore SPR 25 C, pH 7.4
Description: as §3, §4, §5

[10] = molecular target: T1, recombinant biotinylated human PAR2 …; assay: Biacore SPR 25 C, pH 6.0; remark: listed apart in the source
Description: as §3, §4, §5

[11] = molecular target: T2, recombinant biotinylated rat PAR2 …; assay: Biacore SPR 25 C, pH 6.0
Description: as §3, §4, §5

- Fold IC50 (pH 6.0 v pH 7.4) [1]: 11.5 fold
- Fold IC50 pH 7.4 (Variant v Par0067) [1]: 83.2 fold
- IC50 [2]: 69.5 nM
- IC50 [3]: 796 nM
B1: PaB670151 IgG (antibody, V domains shown)
VH: EVQLLESGGGLVQPGGSLRLSCAASGFTFSSYAMNWVRQAPGKGLEWVSTISYSGSLISYADSVKGRFTISRDNSKNTLYLQMNSLRAEDTAVYYCARINHDPMDVWGQGTLVTVSS
VL: SIELTQPPSVSVSPGQTASITCSGDNLGKKYVQWYQQKPGQSPVLVIYDDSNRPSGIPERFSGSNSGNTATLTISGTQAMDEADYYCHTWDHHHTTGEHNVFGGGTKLTVL
notes: IgG1-TM (L234F, L235E, P331S), human lambda light chain

- Fold IC50 (pH 6.0 v pH 7.4) [1]: 37.5 fold
- Fold IC50 pH 7.4 (Variant v Par0067) [1]: 20.2 fold
- IC50 [2]: 16.9 nM
- IC50 [3]: 634 nM
B2: PaB670160 IgG (antibody, V domains shown)
VH: EVQLLESGGGLVQPGGSLRLSCAASGFTFSSYAMNWVRQAPGKGLEWVSTISYSGSLISYADSVKGRFTISRDNSKNTLYLQMNSLRAEDTAVYYCARINHDPMDVWGQGTLVTVSS
VL: SIELTQPPSVSVSPGQTASITCSGDNLGKKYVQWYQQKPGQSPVLVIYDDSNRPSGIPERFSGSNSGNTATLTISGTQAMDEADYYCHTWDGHHTTGETNHFGGGTKLTVL
notes: as for B1

- Fold IC50 (pH 6.0 v pH 7.4) [1]: 79.5 fold
- Fold IC50 pH 7.4 (Variant v Par0067) [1]: 13.7 fold
- IC50 [2]: 11.4 nM
- IC50 [3]: 906 nM
B3: PaB670162 IgG (antibody, V domains shown)
VH: EVQLLESGGGLVQPGGSLRLSCAASGFTFSSYAMNWVRQAPGKGLEWVSTISYHGHHISYADSHHHRFTISRDNSKNTLYLQMNSLRAEDTAVYYCARINNDPMDVWGQGTLVTVSS
VL: SIELTQPPSVSVSPGQTASITCSGDNLGKKYVQWYQQKPGQSPVLVIYDDSNRPSGIPERFSGSNSGNTATLTISGTQAMDEADYYCHTWDGHHTTGETNHFGGGTKLTVL
notes: as for B1

- Fold IC50 (pH 6.0 v pH 7.4) [1]: 69.8 fold
- Fold IC50 pH 7.4 (Variant v Par0067) [1]: 8.2 fold
- IC50 [2]: 6.8 nM
- IC50 [3]: 477 nM
B4: PaB670158 IgG (antibody, V domains shown)
VH: EVQLLESGGGLVQPGGSLRLSCAASGFTFSSYAMNWVRQAPGKGLEWVSTISYHGHHISYADSHHHRFTISRDNSKNTLYLQMNSLRAEDTAVYYCARINNDPMDVWGQGTLVTVSS
VL: SIELTQPPSVSVSPGQTASITCSGDNLGKKYVQWYQQKPGQSPVLVIYDDSNRPSGIPERFSGSNSGNTATLTISGTQAMDEADYYCQTWDGHHHTGETNHFGGGTKLTVL
notes: as for B1

- Fold IC50 (pH 6.0 v pH 7.4) [1]: 59 fold
- Fold IC50 pH 7.4 (Variant v Par0067) [1]: 18.9 fold
- IC50 [2]: 15.8 nM
- IC50 [3]: 932 nM
B5: PaB670157 IgG (antibody, V domains shown)
VH: EVQLLESGGGLVQPGGSLRLSCAASGFTFSSYAMNWVRQAPGKGLEWVSTISYSGSLISYADSVKGRFTISRDNSKNTLYLQMNSLRAEDTAVYYCARIHHDPMDVWGQGTLVTVSS
VL: SIELTQPPSVSVSPGQTASITCSGDNLGKKYVQWYQQKPGQSPVLVIYDDSNRPSGIPERFSGSNSGNTATLTISGTQAMDEADYYCQTWDGHHHTGETNHFGGGTKLTVL
notes: as for B1

- Fold IC50 (pH 6.0 v pH 7.4) [1]: 17.6 fold
- Fold IC50 pH 7.4 (Variant v Par0067) [1]: 111 fold
- IC50 [2]: 93 nM
- IC50 [3]: 1640 nM
B6: PaB670153 IgG (antibody, V domains shown)
VH: EVQLLESGGGLVQPGGSLRLSCAASGFTFSSYAMNWVRQAPGKGLEWVSTISYHGHHISYADSHHHRFTISRDNSKNTLYLQMNSLRAEDTAVYYCARINNDPMDVWGQGTLVTVSS
VL: SIELTQPPSVSVSPGQTASITCSGDNLGKKYVQWYQQKPGQSPVLVIYDDSNRPSGIPERFSGSNSGNTATLTISGTQAMDEADYYCHTWDHHHTTGEHNVFGGGTKLTVL
notes: as for B1

- Kd [4]: 0.104 nM
- koff [4]: 0.00058 s⁻¹
- kon [4]: 5.59e+06 M⁻¹ s⁻¹
- Kd [5]: 0.435 nM
- koff [5]: 0.00325 s⁻¹
- kon [5]: 7.46e+06 M⁻¹ s⁻¹
- Kd [6]: 2.49 nM
- koff [6]: 0.00458 s⁻¹
- kon [6]: 1.84e+06 M⁻¹ s⁻¹
- Kd [7]: 4.48 nM
- koff [7]: 0.0217 s⁻¹
- kon [7]: 4.84e+06 M⁻¹ s⁻¹
- Kd [8]: 0.124 nM
- koff [8]: 0.000519 s⁻¹
- kon [8]: 4.2e+06 M⁻¹ s⁻¹
- Kd [9]: 0.586 nM
- koff [9]: 0.00307 s⁻¹
- kon [9]: 5.24e+06 M⁻¹ s⁻¹
- Kd [10]: 2.57 nM
- koff [10]: 0.00497 s⁻¹
- kon [10]: 1.94e+06 M⁻¹ s⁻¹
- Kd [11]: 5.12 nM
- koff [11]: 0.0205 s⁻¹
- kon [11]: 4e+06 M⁻¹ s⁻¹
B7: PaB670048 Fab (Fab, V domains shown)
VH: EVQLLESGGGLVQPGGSLRLSCAASGFTFSSYAMNWVRQAPGKGLEWVSTISYSGSLISYADSVKGRFTISRDNSKNTLYLQMNSLRAEDTAVYYCARIHHDPMDHWGQGTLVTVSS
VL: SIELTQPPSVSVSPGQTASITCSGDNLGKKYVQWYQQKPGQSPVLVIYDDSNRPSGIPERFSGSNSGNTATLTISGTQAMDEADYYCQTWDGNPTTGETNVFGGGTKLTVL
notes: Fab; also called ZZ1KX4-E11

- Fold IC50 (pH 6.0 v pH 7.4) [1]: 39.6 fold
- Fold IC50 pH 7.4 (Variant v Par0067) [1]: 57.4 fold
- IC50 [2]: 47.9 nM
- IC50 [3]: 1900 nM
B8: PaB670161 IgG (antibody, V domains shown)
VH: EVQLLESGGGLVQPGGSLRLSCAASGFTFSSYAMNWVRQAPGKGLEWVSTISYSGSLISYADSVKGRFTISRDNSKNTLYLQMNSLRAEDTAVYYCARIHHDPMDVWGQGTLVTVSS
VL: SIELTQPPSVSVSPGQTASITCSGDNLGKKYVQWYQQKPGQSPVLVIYDDSNRPSGIPERFSGSNSGNTATLTISGTQAMDEADYYCHTWDGHHTTGETNHFGGGTKLTVL
notes: as for B1

- Fold IC50 (pH 6.0 v pH 7.4) [1]: 15.1 fold
- Fold IC50 pH 7.4 (Variant v Par0067) [1]: 526 fold
- IC50 [2]: 439 nM
- IC50 [3]: 6600 nM
B9: PaB670152 IgG (antibody, V domains shown)
VH: EVQLLESGGGLVQPGGSLRLSCAASGFTFSSYAMNWVRQAPGKGLEWVSTISYSGSLISYADSVKGRFTISRDNSKNTLYLQMNSLRAEDTAVYYCARIHHDPMDVWGQGTLVTVSS
VL: SIELTQPPSVSVSPGQTASITCSGDNLGKKYVQWYQQKPGQSPVLVIYDDSNRPSGIPERFSGSNSGNTATLTISGTQAMDEADYYCHTWDHHHTTGEHNVFGGGTKLTVL
notes: as for B1

- Fold IC50 (pH 6.0 v pH 7.4) [1]: 27.2 fold
- Fold IC50 pH 7.4 (Variant v Par0067) [1]: 8.4 fold
- IC50 [2]: 7 nM
- IC50 [3]: 190 nM
B10: PaB670156 IgG (antibody, V domains shown)
VH: EVQLLESGGGLVQPGGSLRLSCAASGFTFSSYAMNWVRQAPGKGLEWVSTISYSGSLISYADSVKGRFTISRDNSKNTLYLQMNSLRAEDTAVYYCARINHDPMDVWGQGTLVTVSS
VL: SIELTQPPSVSVSPGQTASITCSGDNLGKKYVQWYQQKPGQSPVLVIYDDSNRPSGIPERFSGSNSGNTATLTISGTQAMDEADYYCQTWDGHHHTGETNHFGGGTKLTVL
notes: as for B1
